From article PMC3139646, “Synthesis and Investigation of a Radioiodinated F3 Peptide Analog as a SPECT Tumor Imaging Radioligand” (PLoS ONE, 2011)

How the values were obtained:
[1] = system: MDA-MB-435 tumor-bearing athymic nude mice; conditions: mouse, in vivo, iv
Procedure: Kidney uptake of radioactivity (5.68%ID/g and 10.8% ID/g at 5 and 30 min respectively post-injection) was the highest among all sampled tissues confirming that renal elimination is the major excretory pathway for the radioligand (Table S1). In tumors, radioactivity levels peaked at 30 min post-injection (1.05% ID/g).
(A) Tissue distribution at 60 min post injection and reported as percent injected dose per gram of tissue (%ID/g). (B) and (C) represent the ratio of radioactivity in tumor to blood and tumor to muscle respectively at various time intervals. All the data are computed as mean +/− SEM.
Female CD-1 nude mice (nu/nu, 25–28 g) bearing MDA-MB-435 mammary fat pad tumor xenografts on opposite sides were utilized for the biodistribution studies. Four animals (N = 4) were used per time point. […] Selected tissues (blood, heart, liver, lung, spleen, adrenals, tumor, kidney, muscle, whole brain and thyroid) were harvested and tissue samples were assayed for activity using a Gamma Counter. Tissue uptake was computed as % injected dose/gram (%ID/g).
All the data are computed as mean +/− SEM. (DOCX) Click here for additional data file.

[2] = Storage stability of formulated radioligand (radio-HPLC); assay type: physicochemical; conditions: formulated in PBS:EtOH [95:5], stored at 5°C, radio-HPLC analysis
Procedure: The 3-(tri-n-butylstannyl)[…] analog 8 was obtained from the N-succinimidyl-3-(tri-n-butylstannyl)benzoate analog 7 using the approach described for the synthesis of 5 (Scheme A). […] The radioiodinated product was well resolved from the tri-n-butylstannyl starting material (Rt>25 min) under the HPLC conditions. […] The radioligand which was formulated in PBS∶EtOH [95∶5] was stable for at least 1 week when stored at 5°C (<2% radiolytic decomposition by radio-HPLC analysis).

[3] = system: MDA-MB-435 tumor xenografts; assay type: in vivo, mouse
Procedure: At 4 h, kidney and bladder were not visualized likely due to voiding of urine. It is possible that the presence of urine radioactivity in kidney and bladder, at the early time intervals, could have contributed to an overestimation of tissue radioactivity uptake in these organs in the images. […] Intestinal radioactivity was clearly apparent in the 4 h images, which is most likely due to a shift in radioactivity clearance from the renal to hepatobiliary excretion pathway at later time intervals.
Mouse SPECT/CT imaging studies were performed on a GMI Tri-Modality CT/PET/SPECT small animal scanner (Gamma-Medica Ideas, Inc., Northridge, CA). SPECT images were acquired using a dual-head, high-resolution, low-energy parallel-hole collimator. CT imaging of animals was performed for anatomical co-registration and CT fusion of SPECT images were performed using AMIRA (version 3.1) software (Visage Imaging, San Diego, CA USA). Imaging was performed when tumors reached a 60–100 mm^3 average volume.

[4] = system: tumor-bearing athymic nude mice; conditions: mouse, in vivo, iv
Text: The remaining radioactivity consisted primarily of two hydrophobic radiometabolites representing 47% and 18% of the total plasma radioactivity. […] In contrast, the parent radioligand accounted for 42% of the total radioactivity present in mouse urine samples at this time interval. The remaining radioactivity consisted of three major hydrophobic radiometabolites representing 28%, 6.8% and 10% of the total. […] This is possibly due to its high in vivo tumor affinity which results in its rapid sequestration and retention within the tumor cells in a nucleolin dependent manner.
Blood and urine samples were collected, centrifuged at 12,000 rpm for 15 min, and the supernatants transferred to a fresh centrifuge tube and the centrifugation repeated. The supernatants were treated with CH3CN and centrifuged again to precipitate proteins and the clear supernatants analyzed by radio-HPLC (Method I).

In the case of “N-(2-{3-[^125I]Iodobenzoyl}aminoethyl)maleimide-F3Cys peptide [[^125I]IBMF3]”, the Extraction into brain [1] is reported as 0.03 %ID/g, the “Radioactivity clearance from blood” value [1] is reported as over 60% and the Tumor-to-blood ratio [1] is reported as 2.1. For the same substance, the Tumor-to-muscle ratio [1] was 4.3, the “Radiolytic decomposition on storage” value ([2]; 1 week) was under 2% and the “Time stable on storage” value [2] was “at least 1 week”. For the same substance, the “Tumor uptake in SPECT images, early” value ([3]; 15 min post-injection, i.v. 570–610 µCi, MDA-MB-435 xenografts) was “distinct uptake of radioactivity in tumor as early as 15 min post-injection”, the “Tumor visualization in SPECT images at 4 h” value ([3]; 4 h post-injection, i.v. 570–610 µCi, MDA-MB-435 xenografts) was “visualized in the SPECT images at 4 h although at lower levels” and the “Tumor radioactivity in SPECT images at later time intervals” value ([3]; >4 h post-injection, i.v., MDA-MB-435 xenografts) was “substantial clearance at later time intervals”. The “Thyroid uptake in SPECT images (in vivo deiodination)” value ([3]; mouse, in vivo, iv) was “Moderate radioactivity uptake was seen in thyroid”, the “Hydrophobic radiometabolite (first named), share of total plasma radioactivity” value [4] was 47% and the “Hydrophobic radiometabolite (first named), share of total urine radioactivity” value [4] was 28%. For the same substance, the “Hydrophobic radiometabolite (second named), share of total plasma radioactivity” value [4] was 18%, the “Hydrophobic radiometabolite (second named), share of total urine radioactivity” value [4] was 6.8% and the “Hydrophobic radiometabolite (third named), share of total urine radioactivity” value [4] was 10%. For the same substance, the “Parent radioligand, share of total urine radioactivity” value [4] was 42%.
